Data from patent publication US20250361314A1 (SHANGHAI HUAOTA BIOPHARMACEUTICAL, published 2025).
Positions count from the first letter of the chain named.

T1: Cynomolgus CD39 antigen (cynomolgus, UniProt A0A7N9DGH8 38-478)
T1 construct: Antigen used as analyte in SPR
T1 sequence: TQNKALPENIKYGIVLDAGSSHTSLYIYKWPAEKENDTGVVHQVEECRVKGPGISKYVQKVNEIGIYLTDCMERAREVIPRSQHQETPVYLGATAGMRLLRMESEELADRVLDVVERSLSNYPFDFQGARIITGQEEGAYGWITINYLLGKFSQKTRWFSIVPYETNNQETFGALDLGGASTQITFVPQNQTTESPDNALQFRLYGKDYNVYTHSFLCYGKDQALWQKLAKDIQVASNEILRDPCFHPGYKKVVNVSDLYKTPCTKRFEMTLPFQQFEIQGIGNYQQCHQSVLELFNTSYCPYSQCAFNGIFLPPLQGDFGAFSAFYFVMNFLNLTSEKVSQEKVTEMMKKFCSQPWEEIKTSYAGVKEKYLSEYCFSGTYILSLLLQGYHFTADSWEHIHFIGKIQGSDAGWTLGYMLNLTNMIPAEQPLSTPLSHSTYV

T2: Human CD39 antigen (human, UniProt P49961 38-478)
T2 construct: Antigen used as analyte in SPR; also called ENTPD1
T2 sequence (looked up): T1 sequence with I10V, Y57F, I184V, T193I, V292I, N331K, S354A

T3: Cynomolgus CD73 antigen (cynomolgus, UniProt A0A2K5V5U7 27-547)
T3 construct: Antigen used as analyte in SPR
T3 sequence: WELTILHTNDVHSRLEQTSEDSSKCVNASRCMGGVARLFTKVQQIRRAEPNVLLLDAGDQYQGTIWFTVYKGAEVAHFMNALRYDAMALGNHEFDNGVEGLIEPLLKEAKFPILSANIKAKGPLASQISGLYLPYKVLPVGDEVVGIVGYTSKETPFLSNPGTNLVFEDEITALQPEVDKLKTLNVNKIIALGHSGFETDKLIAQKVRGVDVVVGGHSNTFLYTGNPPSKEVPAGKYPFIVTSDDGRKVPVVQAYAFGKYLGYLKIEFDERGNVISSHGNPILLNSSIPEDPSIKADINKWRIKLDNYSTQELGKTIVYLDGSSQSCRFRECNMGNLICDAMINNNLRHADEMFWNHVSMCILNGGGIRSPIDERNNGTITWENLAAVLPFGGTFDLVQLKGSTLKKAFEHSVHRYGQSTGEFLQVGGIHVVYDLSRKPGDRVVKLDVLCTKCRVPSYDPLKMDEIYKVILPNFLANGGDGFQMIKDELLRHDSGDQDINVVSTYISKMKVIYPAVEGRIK

T4: Human CD73 antigen (human, UniProt P21589 27-547, limits assumed)
T4 construct: Antigen used as analyte in SPR; also called NT5E
T4 sequence (looked up): T3 sequence with T199M, A350T, I466V

B1: CD39/CD73 bispecific antibody 700035 (CD39-VHH-CD73-IgG) (bispecific antibody)
heavy: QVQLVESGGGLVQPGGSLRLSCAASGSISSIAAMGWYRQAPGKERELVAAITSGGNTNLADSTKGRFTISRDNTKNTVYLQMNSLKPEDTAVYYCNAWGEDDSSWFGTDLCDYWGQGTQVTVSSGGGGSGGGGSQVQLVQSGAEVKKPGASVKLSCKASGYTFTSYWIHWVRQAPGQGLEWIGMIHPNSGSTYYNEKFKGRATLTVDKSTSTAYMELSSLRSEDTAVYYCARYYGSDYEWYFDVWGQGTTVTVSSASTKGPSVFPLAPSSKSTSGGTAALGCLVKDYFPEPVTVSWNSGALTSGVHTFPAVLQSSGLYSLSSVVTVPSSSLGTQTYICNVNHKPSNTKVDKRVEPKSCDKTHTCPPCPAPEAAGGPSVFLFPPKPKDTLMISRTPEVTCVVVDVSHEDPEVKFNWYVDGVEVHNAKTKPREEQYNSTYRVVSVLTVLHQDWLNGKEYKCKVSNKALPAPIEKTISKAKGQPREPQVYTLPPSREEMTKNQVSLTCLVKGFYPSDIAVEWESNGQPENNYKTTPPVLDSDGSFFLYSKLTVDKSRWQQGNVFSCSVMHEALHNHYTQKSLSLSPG
light: DIQMTQSPSSMSASVGDRVTITCKASQNVRTAVVWYQQKPGKAPKALIYLASNRHTGVPDRFSGSGSGTDFTLTISSLQPEDFATYFCLQHWNYPYTFGQGTKLEIKRTVAAPSVFIFPPSDEQLKSGTASVVCLLNNFYPREAKVQWKVDNALQSGNSQESVTEQDSKDSTYSLSSTLTLSKADYEKHKVYACEVTHQGLSSPVTKSFNRGEC
B2: CD39/CD73 bispecific antibody 700038 (CD39-VHH-CD73-IgG) (bispecific antibody)
heavy: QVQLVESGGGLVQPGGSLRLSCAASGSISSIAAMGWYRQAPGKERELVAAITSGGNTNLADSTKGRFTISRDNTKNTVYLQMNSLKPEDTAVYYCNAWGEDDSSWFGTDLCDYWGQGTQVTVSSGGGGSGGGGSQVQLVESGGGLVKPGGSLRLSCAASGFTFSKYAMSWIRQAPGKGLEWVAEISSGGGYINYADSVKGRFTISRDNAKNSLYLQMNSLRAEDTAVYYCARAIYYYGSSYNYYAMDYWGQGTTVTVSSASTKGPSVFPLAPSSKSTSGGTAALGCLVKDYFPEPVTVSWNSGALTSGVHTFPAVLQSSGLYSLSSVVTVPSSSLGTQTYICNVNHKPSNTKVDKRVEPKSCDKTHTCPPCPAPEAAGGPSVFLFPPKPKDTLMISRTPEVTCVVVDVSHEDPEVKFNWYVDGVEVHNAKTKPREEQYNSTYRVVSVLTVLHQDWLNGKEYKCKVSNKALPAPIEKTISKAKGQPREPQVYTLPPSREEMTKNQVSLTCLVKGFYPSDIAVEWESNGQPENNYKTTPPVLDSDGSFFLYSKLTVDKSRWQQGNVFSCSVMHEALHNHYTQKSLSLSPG
light: DIQMTQSPSSLSASVGDRVTITCRASQDVGTAEAWYQQKPGKAPKLLIYWASTRHTGVPSRFSGSGSGTDFTLTISSLQPEDFATYYCQQYSSYPLTFGQGTKLEIKRTVAAPSVFIFPPSDEQLKSGTASVVCLLNNFYPREAKVQWKVDNALQSGNSQESVTEQDSKDSTYSLSSTLTLSKADYEKHKVYACEVTHQGLSSPVTKSFNRGEC

Columns and labels:
Test in all cases: SPR (Biacore 8K), species cross test, antibody captured on anti-human capture CM5 chip, antigen as analyte, 1:1 model
Cynomolgus CD39 antigen = biological target: T1, Cynomolgus CD39 antigen
Protocol: (§1) The experimental method is as follows:
(§2) An Anti-Human Capture-CM5 chip (GE, #BR-1005-30) was prepared using coupling methods of a Human Antibody Capture Kit (GE, #BR-1008-39) and an amino coupling kit (GE, BR-1000-50). The chip was equilibrated at room temperature for about 20-30 min and loaded into a Biacore 8K instrument. The antigen and antibody were diluted to an experimental working concentration using an equilibration buffer. The antigen was diluted with an equilibrium buffer to 50 nM, and then diluted three-fold for seven concentration gradients, and two zero concentrations (i.e., the equilibrium buffer) and one repeat concentration (typically the lowest concentration repeat) were set. Experimental analysis was performed on 10 antigen concentrations (2 zero concentrations, 7 gradient concentrations, and 1 repeated concentration) in a cyclic manner according to an order of antibody, antigen, and regeneration. The antigen injection flow rate was 30 μL/min, the binding time was 120 s, and the dissociation time was 600 s. Following the analysis, the data was analyzed using the corresponding analysis program to confirm that there was no obvious reference binding. Using Kinetics and a 1:1 binding model, the data was fit to obtain the kinetic related parameters Ka, Kd, and KD values of the bispecific antibodies.

Human CD39 antigen = biological target: T2, Human CD39 antigen
Protocol: as §1, §2

Cynomolgus CD73 antigen = biological target: T3, Cynomolgus CD73 antigen
Protocol: as §1, §2

Human CD73 antigen = biological target: T4, Human CD73 antigen
Protocol: as §1, §2

| Binder | Kd (Cynomolgus CD39 antigen) | koff (Cynomolgus CD39 antigen) | kon (Cynomolgus CD39 antigen) | Kd (Human CD39 antigen) | koff (Human CD39 antigen) | kon (Human CD39 antigen) | Kd (Cynomolgus CD73 antigen) | koff (Cynomolgus CD73 antigen) | kon (Cynomolgus CD73 antigen) | Kd (Human CD73 antigen) | koff (Human CD73 antigen) | kon (Human CD73 antigen) |
| --- | --- | --- | --- | --- | --- | --- | --- | --- | --- | --- | --- | --- |
| B1 | 2.61 nM | 0.00161 s⁻¹ | 618000 M⁻¹ s⁻¹ | 0.0708 nM | 9.28e-05 s⁻¹ | 1.31e+06 M⁻¹ s⁻¹ | 0.409 nM | 0.000342 s⁻¹ | 836000 M⁻¹ s⁻¹ | 0.341 nM | 0.000319 s⁻¹ | 935000 M⁻¹ s⁻¹ |
| B2 | 2.69 nM | 0.00163 s⁻¹ | 606000 M⁻¹ s⁻¹ | 0.0918 nM | 9.54e-05 s⁻¹ | 1.04e+06 M⁻¹ s⁻¹ | 0.326 nM | 0.000148 s⁻¹ | 456000 M⁻¹ s⁻¹ | 0.425 nM | 0.000249 s⁻¹ | 587000 M⁻¹ s⁻¹ |
